According to publication PMC1435831:
pKd: −log10 of the molar value. Read-outs that look alike come from different tables or passages of the source.

Key:
[1] = biological target: His-tagged SmpB protein (small protein B), wild type (E. coli) (UniProt P0A832); assay: SPR
[2] = biological target: His-tagged SmpB protein (small protein B), wild type (E. coli) (UniProt P0A832); assay: SPR; remark: listed apart in the source

Sequence of UniProt P0A832 (P0A832 whole entry): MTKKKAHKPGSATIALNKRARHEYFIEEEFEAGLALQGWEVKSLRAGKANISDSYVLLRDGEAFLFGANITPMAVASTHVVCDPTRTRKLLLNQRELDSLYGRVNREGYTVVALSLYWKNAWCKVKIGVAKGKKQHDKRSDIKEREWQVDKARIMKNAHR

pKd [1]	pKd [2]	Substance
8.36	9.77	30S ribosomal subunit (complex)
8.32	9.77	50S ribosomal subunit (complex)
8.14		70S ribosome (complex)
